Measurements taken from patent US20120201821A1 (published 2012).

Columns and labels:
[1] = target: T1, human IL-17RE (human, UniProt Q8NFR9 24-667); test: binding screen on IL-17RE expressing 293 cells
T1 construct: Retrovirally expressed on 293 cells or HDFn fibroblasts from human IL17RE cDNA; A possible Flag tag on the construct is not described; also called hIL-17RE
T1 sequence: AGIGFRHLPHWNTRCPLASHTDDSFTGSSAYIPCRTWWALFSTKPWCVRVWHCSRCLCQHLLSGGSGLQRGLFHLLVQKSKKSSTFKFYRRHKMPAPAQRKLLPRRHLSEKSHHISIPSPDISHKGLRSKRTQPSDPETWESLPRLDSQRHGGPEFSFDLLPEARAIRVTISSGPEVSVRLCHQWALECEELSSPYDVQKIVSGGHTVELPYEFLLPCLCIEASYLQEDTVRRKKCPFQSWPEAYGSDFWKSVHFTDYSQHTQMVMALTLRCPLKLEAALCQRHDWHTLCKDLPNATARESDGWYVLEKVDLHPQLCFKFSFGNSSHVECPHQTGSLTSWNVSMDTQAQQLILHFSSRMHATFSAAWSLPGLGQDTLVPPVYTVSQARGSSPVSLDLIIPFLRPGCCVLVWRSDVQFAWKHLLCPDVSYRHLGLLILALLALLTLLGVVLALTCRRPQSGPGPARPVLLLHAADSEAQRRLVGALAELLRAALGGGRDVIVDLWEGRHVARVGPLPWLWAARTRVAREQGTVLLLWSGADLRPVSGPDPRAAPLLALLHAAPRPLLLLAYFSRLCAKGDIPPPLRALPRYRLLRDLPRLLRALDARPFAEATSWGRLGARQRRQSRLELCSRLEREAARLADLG

[2] = target: T2, human IL-17RA (human, UniProt Q96F46 33-866); test: radioligand competition binding: 125I-hIL-17C displaced by unlabeled hIL-17C on 293 cells expressing hIL-17RA
T2 construct: Retrovirally expressed on 293 cells from human IL17RA cDNA (pMSCV-IRES-GFP); Surface expression was confirmed with an anti-Flag antibody, so the construct may carry a Flag tag; not described; also called hIL-17RA
T2 sequence: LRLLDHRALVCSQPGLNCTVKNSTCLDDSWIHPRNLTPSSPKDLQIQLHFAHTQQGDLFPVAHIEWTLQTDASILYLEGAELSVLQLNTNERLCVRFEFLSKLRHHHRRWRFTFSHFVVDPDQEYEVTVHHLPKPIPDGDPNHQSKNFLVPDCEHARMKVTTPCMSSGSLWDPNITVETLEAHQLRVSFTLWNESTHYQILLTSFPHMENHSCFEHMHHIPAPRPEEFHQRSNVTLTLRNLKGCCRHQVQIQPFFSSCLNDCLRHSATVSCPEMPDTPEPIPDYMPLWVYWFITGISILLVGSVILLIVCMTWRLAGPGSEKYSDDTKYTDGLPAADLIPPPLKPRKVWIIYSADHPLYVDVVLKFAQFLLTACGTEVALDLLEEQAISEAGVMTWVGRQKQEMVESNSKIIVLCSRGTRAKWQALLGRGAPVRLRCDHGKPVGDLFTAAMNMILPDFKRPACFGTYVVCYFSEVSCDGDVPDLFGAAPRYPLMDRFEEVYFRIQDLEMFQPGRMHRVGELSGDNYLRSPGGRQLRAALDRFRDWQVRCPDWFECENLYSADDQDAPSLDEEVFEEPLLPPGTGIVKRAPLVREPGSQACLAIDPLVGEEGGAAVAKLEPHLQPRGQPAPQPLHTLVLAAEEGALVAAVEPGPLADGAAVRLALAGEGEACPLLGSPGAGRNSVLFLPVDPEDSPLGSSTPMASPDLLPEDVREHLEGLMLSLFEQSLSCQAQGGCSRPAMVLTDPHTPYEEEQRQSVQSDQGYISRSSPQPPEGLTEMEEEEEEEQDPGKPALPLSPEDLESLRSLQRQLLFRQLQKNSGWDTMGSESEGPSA
Method: (§1) 293 cells expressing the IL-17 receptors were incubated for 2 hours at room temperature with a fixed concentration of iodinated hIL-17C combined with increasing concentrations of unlabeled hIL-17C and including a zero-added, buffer only sample. After the 2-hour incubation, the competition reactions were transferred to a Millipore Multiscreen filter plate and washed 4 times with binding buffer to separate the free from bound iodinated hIL-17C. The filters were counted on a Wallac Wizard 1470 gamma counter and binding data was evaluated using NewLigand software (Genentech), which uses the fitting algorithm of Munson and Rodbard to determine the binding affinity of IL-17C 58.

[3] = target: T1, human IL-17RE; test: radioligand competition binding: 125I-hIL-17C displaced by unlabeled hIL-17C on 293 cells expressing hIL-17RE
Method: as §1

[4] = target: T3, human IL-17RD (human, UniProt Q8NFM7 17-739); test: flow cytometry, Flag-tagged hIL-17C on 293 cells expressing the receptor, anti-Flag detection
T3 construct: whole, on cells
T3 sequence (looked up): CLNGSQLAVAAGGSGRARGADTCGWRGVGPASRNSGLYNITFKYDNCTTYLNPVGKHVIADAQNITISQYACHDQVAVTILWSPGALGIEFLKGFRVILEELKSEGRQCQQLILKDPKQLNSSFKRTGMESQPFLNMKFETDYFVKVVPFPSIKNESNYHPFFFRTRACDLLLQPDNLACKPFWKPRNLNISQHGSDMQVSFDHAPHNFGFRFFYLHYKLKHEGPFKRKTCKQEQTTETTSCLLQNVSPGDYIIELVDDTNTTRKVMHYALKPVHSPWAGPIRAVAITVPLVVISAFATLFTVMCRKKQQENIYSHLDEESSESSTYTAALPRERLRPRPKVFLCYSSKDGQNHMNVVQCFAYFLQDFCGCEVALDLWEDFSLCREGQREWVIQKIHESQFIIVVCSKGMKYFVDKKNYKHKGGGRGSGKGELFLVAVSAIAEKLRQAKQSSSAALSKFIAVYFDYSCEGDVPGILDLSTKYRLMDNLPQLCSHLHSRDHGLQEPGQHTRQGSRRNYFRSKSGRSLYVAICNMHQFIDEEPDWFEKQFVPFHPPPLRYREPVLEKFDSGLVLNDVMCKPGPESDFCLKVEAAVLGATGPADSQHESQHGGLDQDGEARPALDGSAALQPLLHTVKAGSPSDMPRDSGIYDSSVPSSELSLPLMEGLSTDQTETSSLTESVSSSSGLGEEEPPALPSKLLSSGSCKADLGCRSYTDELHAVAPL

[5] = target: T4, human IL-17RB (human, UniProt Q9NRM6 18-502); test: as above
T4 construct: whole, on cells
T4 sequence (looked up): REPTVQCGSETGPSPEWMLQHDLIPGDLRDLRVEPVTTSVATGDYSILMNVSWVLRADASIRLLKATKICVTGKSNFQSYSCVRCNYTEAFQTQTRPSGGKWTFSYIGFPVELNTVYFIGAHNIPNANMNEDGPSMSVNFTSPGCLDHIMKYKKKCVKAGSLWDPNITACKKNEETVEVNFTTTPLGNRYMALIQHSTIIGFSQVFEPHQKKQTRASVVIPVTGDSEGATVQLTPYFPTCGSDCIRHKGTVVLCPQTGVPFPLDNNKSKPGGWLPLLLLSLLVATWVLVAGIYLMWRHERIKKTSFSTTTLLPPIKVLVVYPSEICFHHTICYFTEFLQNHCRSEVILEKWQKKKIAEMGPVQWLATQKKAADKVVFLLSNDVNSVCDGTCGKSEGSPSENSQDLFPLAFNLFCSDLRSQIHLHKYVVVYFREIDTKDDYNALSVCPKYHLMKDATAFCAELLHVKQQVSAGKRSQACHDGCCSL

[6] = target: T5, human IL-17RC (human, UniProt Q8NAC3 21-791); test: as above
T5 construct: whole, on cells
T5 sequence (looked up): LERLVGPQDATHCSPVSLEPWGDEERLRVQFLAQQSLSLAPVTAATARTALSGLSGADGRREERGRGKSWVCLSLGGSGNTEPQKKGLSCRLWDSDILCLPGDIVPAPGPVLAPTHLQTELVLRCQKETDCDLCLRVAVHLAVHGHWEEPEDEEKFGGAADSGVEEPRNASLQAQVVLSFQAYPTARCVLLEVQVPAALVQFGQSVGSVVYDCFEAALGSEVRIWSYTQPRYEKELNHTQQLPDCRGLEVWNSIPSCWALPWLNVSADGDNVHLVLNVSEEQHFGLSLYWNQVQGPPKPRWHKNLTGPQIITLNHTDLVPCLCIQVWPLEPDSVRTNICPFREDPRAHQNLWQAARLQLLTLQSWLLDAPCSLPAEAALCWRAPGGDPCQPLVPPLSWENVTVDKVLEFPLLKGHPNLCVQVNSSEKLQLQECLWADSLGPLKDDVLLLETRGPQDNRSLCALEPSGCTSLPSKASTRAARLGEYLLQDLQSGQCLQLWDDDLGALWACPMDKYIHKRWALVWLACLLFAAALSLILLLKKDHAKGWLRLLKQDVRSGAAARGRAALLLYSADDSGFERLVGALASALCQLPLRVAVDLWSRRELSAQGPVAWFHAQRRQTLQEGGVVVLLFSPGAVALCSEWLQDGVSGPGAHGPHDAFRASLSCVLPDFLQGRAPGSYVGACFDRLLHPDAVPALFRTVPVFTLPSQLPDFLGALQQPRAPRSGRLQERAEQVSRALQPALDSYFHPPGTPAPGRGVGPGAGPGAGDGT

B1: IL-17E (ligand, UniProt Q9H293 33-177, looked up)
chain: YSHWPSCCPSKGQDTSEELLRWSTVPVPPLEPARPNRHPESCRASEDGPLNSRAISPWRYELDRDLNRLPQDLYHARCLCPHCVSLQTGSHMDPRGNSELLYHNQTVFYRRPCHGEKGTHKGYCLERRLYRVSLACVCVRPRVMG
notes: also called IL-25
binding result [1]: no binding

B2: IL-17F (ligand, UniProt Q96PD4 31-163, looked up)
chain: RKIPKVGHTFFQKPESCPPVPGGSMKLDIGIINENQRVSMSRNIESRSTSPWNYTVTWDPNRYPSEVVQAQCRNLGCINAQGKEDISMNSVPIQQETLVVRRKHQGCSVSFQLEKVLVTVGCTCVTPVIHHVQ
binding result [1]: no binding

B3: Flag-tagged mature human IL-17C (His-19 to Val-197) with Gly-77 and Arg-78 substituted to Arg and Thr (ligand)
chain: HHDPSLRGHPHSHGTPHCYSAEELPLGQAPPHLLARGAKWGQALPVALVSSLEAASHRRTHERPSATTQCPVLRPEEVLEADTHQRSISPWRYRVDTDEDRYPQKLAFAECLCRGCIDARTGRETAALNSVRLLQSLLVLRRRPCSRDGSGLPTPGAFAFHTEFIHVPVGCTCVLPRSV
notes: Made in CHO cells as an N-terminal Flag fusion; For the radioligand assay the protein was iodinated (Iodogen); also called hIL-17C; FLAG-tagged hIL-17C; not shown: N-terminal Flag tag
Kd [2]: 1400 nM
Kd [3]: 0.35 nM
binding result [4]: no binding
binding result [5]: no binding
binding result [6]: no binding

B4: IL-17B (ligand, UniProt Q9UHF5 21-180, looked up)
chain: QPRSPKSKRKGQGRPGPLAPGPHQVPLDLVSRMKPYARMEEYERNIEEMVAQLRNSSELAQRKCEVNLQLWMSNKRSLSPWGYSINHDPSRIPVDLPEARCLCLGCVNPFTMQEDRSMVSVPVFSQVPVRRRLCPPPPRTGPCRQRAVMETIAVGCTCIF
binding result [1]: no binding
